Measurements: patent publication US20170355730A1 (ENTRADA THERAPEUTICS, published 2017)
Starred links: 1 amine or outer side, 2 acyl side, 3 side chain; linkers in the order of their positions; H or OH if unused. Non-standard residues stand in square brackets, D forms with d. Primed or numbered codes have the meaning given here. No end group written: not given here. *: point of attachment. FITC = O=C1OC2(c3ccc(O)cc3Oc3cc(O)ccc32)c2ccc(NC(=S)*)cc21; Trimesoyl = O=C(c1cc(C(=O)[*:2])cc(C(=O)[*:3])c1)[*:1]; F2Pmp = N[C@@H](Cc1ccc(C(F)(F)P(=O)(O)O)cc1)C(=O)O; Phe(4-F) = N[C@@H](Cc1ccc(F)cc1)C(=O)O; dPhe(4-F) = N[C@H](Cc1ccc(F)cc1)C(=O)O; 2Nal = N[C@@H](Cc1ccc2ccccc2c1)C(=O)O; Pip′ = L-homoproline (pipecolyl); AMC = Cc1cc(=O)oc2cc(N*)ccc12; Phg = N[C@H](C(=O)O)c1ccccc1; Nle = CCCC[C@H](N)C(=O)O; Abu = CC[C@H](N)C(=O)O; Dap = NC[C@H](N)C(=O)O; Butyryl = CCCC(=O)*

T1: ybbR-tagged PTP1B catalytic domain (amino acids 1-321) (UniProt P18031 1-321, Texas Red attached through CoA/Sfp to the ybbR tag (library screening only))
T1 construct: range 1-321; also called Texas red-labeled PTP1B; protein-tyrosine phosphatase 1B
T1 sequence: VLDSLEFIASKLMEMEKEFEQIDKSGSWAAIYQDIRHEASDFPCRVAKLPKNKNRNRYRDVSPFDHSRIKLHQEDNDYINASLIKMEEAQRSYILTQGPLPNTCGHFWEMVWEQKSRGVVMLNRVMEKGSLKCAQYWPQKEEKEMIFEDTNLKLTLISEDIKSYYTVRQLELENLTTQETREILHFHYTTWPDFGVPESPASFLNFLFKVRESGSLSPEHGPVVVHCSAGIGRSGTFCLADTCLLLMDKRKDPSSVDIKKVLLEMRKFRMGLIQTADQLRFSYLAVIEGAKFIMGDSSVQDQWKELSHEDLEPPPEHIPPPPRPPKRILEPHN

T2: Caspase-3, Human, recombinant protein (human, UniProt P42574 29-277, limits assumed)
T2 sequence (looked up): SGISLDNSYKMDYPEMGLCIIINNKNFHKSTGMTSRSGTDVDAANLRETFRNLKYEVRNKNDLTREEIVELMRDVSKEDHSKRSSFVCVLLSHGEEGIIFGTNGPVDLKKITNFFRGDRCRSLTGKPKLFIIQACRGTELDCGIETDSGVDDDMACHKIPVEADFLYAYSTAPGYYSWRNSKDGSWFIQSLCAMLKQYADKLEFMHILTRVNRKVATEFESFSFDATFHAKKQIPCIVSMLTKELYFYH


Tests used:
[1] = target: T1, ybbR-tagged PTP1B catalytic domain …; experiment: PTP1B-catalyzed pNPP hydrolysis, competitive inhibition (Lineweaver-Burk and secondary plot)
[2] = target: T1, ybbR-tagged PTP1B catalytic domain …; experiment: cell-based or functional assay
[3] = target: T2, Caspase-3, Human, recombinant protein; experiment: cell-based or functional assay
[4] = target: T2, Caspase-3, Human, recombinant protein; experiment: cell-based or functional assay; remark: listed apart in the source
Pin4 = Pin4 (human, UniProt Q9Y237 1-131, limits assumed); experiment: cell-based or functional assay
Sequence of Pin4 (Q9Y237 whole entry, the tested form may be a part): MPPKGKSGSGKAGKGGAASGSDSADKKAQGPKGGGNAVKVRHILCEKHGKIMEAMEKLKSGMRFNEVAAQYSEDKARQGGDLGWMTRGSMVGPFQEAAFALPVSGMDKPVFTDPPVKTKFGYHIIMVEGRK

CAL-PDZ domain = CAL-PDZ domain (UniProt Q9HD26 286-370); experiment: fluorescence anisotropy, FITC-labeled peptide, in the presence of 2 mM tris(carboxylethyl)phosphine

| Binder | IC50 (inhibition of pNPP hydrolysis) [2] [nM] | ΔFU/min [3] | further results |
| --- | --- | --- | --- |
| cyclo(S[dV]P[F2Pmp]HRRRR[2Nal]FQ) [Monocyclic Inhibitor 2] | ~30 |  | Ki [1]: 54 nM |
| Butyryl-RRRR[2Nal]FD[Nle][Abu]D-{AMC} [peptide 6 (Table 10, linear control)] |  | 74.7 ΔFU/min | decrease of activity relative to peptide 3 [4]: 53% |
| Ac-RRRRRRRRRD[Nle][Abu]D-{AMC} (SMILES CCCC[C@H](NC(=O)[C@H](CC(=O)O)NC(=O)[C@H](CCCNC(=N)N)NC(=O)[C@H](CCCNC(=N)N)NC(=O)[C@H](CCCNC(=N)N)NC(=O)[C@H](CCCNC(=N)N)NC(=O)[C@H](CCCNC(=N)N)NC(=O)[C@H](CCCNC(=N)N)NC(=O)[C@H](CCCNC(=N)N)NC(=O)[C@H](CCCNC(=N)N)NC(=O)[C@H](CCCNC(=N)N)NC(C)=O)C(=O)N[C@@H](CC)C(=O)N[C@@H](CC(=O)O)C(=O)Nc1ccc2c(C)cc(=O)oc2c1) [peptide 7 (Table 10, R9 conjugate)] |  | 45.3 ΔFU/min | decrease of activity relative to peptide 3 [4]: 72% |
| Trimesoyl-[dPhe(4-F)][Phe(4-F)][dT][Pip′][2Nal]RA[dF][Dap]F[2Nal]RRRR[Dap]K (linker (positions not given here) via Trimesoyl; not fully specified (bridges); printed as bicyclo[Tm-(D-4-Fpa-Fpa-D-Thr-Pip-Nal-Arg-Ala-D-Phe)-Dap-(Phe-Nal-Arg-Arg-Arg-Arg-Dap)]-Lys) [peptide 37 (Table 18)] |  |  | IC50 of Pin4 isomerase activity (Pin4): ~34000 nM |
| cyclo(IP[Phg][F2Pmp][Nle]RRRR[2Nal]FQ) [Monocyclic Inhibitor 3] | ~200 |  |  |
| Ac-D[Nle][Abu]D-{AMC} (SMILES CCCC[C@H](NC(=O)[C@H](CC(=O)O)NC(C)=O)C(=O)N[C@@H](CC)C(=O)N[C@@H](CC(=O)O)C(=O)Nc1ccc2c(C)cc(=O)oc2c1) [peptide 3 (Table 10, caspase 3/7 substrate)] |  | 159 ΔFU/min |  |
| cyclo([dT][dN][dV][F2Pmp][dA]RRRR[2Nal]FQ) (SMILES CC(C)[C@H]1NC(=O)[C@@H](CC(N)=O)NC(=O)[C@@H]([C@H](C)O)NC(=O)[C@H](CCC(N)=O)NC(=O)[C@H](Cc2ccccc2)NC(=O)[C@H](Cc2ccc3ccccc3c2)NC(=O)[C@H](CCCNC(=N)N)NC(=O)[C@H](CCCNC(=N)N)NC(=O)[C@H](CCCNC(=N)N)NC(=O)[C@H](CCCNC(=N)N)NC(=O)[C@@H](C)NC(=O)[C@H](Cc2ccc(C(F)(F)P(=O)(O)O)cc2)NC1=O) [Monocyclic Inhibitor 1] | ~100 |  |  |
| {FITC}-CRRRRFWQCTRV (also: disulfide reduced by TCEP (free thiols), As assayed in the presence of 2 mM tris(carboxylethyl)phosphine) [peptide 8 (Table 10, CAL-PDZ inhibitor), reduced linear form] |  |  | Kd (CAL-PDZ domain): 489 nM |
